In assay [1] the target is T1, mouse DLL4 overexpressed on cells (mouse, UniProt Q9JI71 27-686).
T1 construct: whole, on cells; also called CHO-mDLL4; CHO-mDII4
Description: FACS titration on HEK293-mDLL4 cells, MCF. The method, then:
In order to determine the cynomologus cross-reactivity of the VHHs, a FACS binding experiment is performed. Cynomolgus DII4 expressing HEK293 cells (transient or stable transfection) are used for a titration binding experiment of the VHHs. After a 30 minutes incubation on ice, all samples are washed and detection is performed by applying anti-c-myc˜Alexa647 (Santa Cruz Biotechnology, Santa Cruz, Calif., USA). Human and mouse DII4 overexpressing HEK293 cells are taken as reference. The mean MCF value is determined on the FACS Array and used for calculation of the EC₅₀ value (see FIG. 9 A-E).

Assay [2] concerns the target T2, human DLL4 overexpressed on cells (human, UniProt Q9NR61 27-685).
T2 construct: full length human DLL4 on CHO or HEK293 cells; also called CHO-hDLL4; CHO-hDII4
Description: FMAT, labelled hNotch1-Fc on CHO-hDLL4, periplasmic extract. The source says:
All calculations are based on the FL1_total signal which comprises the average of the fluorescence per well times the number of counts per well.

Another assay concerns the target T3, recombinant human DLL4 (human, UniProt Q9NR61 25-522).
T3 construct: also called rhDLL4; hDLL4
Description: competition AlphaScreen, biot-hDLL4/hNotch1-Fc. The protocol:
In brief, 1 nM biotinylated human DII4 is captured on streptavidin-coated donor beads (20 μg/mL), while 0.4 nM of the receptor human Notch1 (as a Fc fusion protein) is captured on anti-human Fc VHH-coated acceptor beads (20 μg/mL). Both loaded beads are incubated together with a dilution range of the competing VHH (FIG. 4 A-E).
(In Alpha technology, singlet oxygen from a donor bead excites a nearby acceptor bead.)

Assay [3] concerns the target T4, human DLL4 expressed on cells (CHO-hDLL4; HEK293-hDLL4) (human, UniProt Q9NR61 27-685).
T4 construct: full length human DLL4 overexpressed on CHO cells (FMAT, FACS) or HEK293 cells (reporter assay)
Description: competition FMAT, labelled hNotch1-Fc on CHO-hDLL4 cells.

Assay [4] deals with T5, mouse DLL4 expressed on CHO cells (mouse, UniProt Q9JI71 27-686).
T5 construct: whole, on cells; also called mDLL4; CHO-mDLL4
Description: competition FMAT, labelled hNotch1-Fc on CHO-mDLL4 cells.

For assay [5], the target named is T4, human DLL4 expressed on cells …. Description: FACS titration on human DLL4 expressing cells, detection anti-c-myc Alexa647 (Example 5.8, Example 7), MCF.

Six molecules from patent publication US20140120095A1 (Boehringer Ingelheim, published 2014) can be followed below.

Substitutions are numbered along the chain they refer to.

T1 sequence (Q9JI71 27-686): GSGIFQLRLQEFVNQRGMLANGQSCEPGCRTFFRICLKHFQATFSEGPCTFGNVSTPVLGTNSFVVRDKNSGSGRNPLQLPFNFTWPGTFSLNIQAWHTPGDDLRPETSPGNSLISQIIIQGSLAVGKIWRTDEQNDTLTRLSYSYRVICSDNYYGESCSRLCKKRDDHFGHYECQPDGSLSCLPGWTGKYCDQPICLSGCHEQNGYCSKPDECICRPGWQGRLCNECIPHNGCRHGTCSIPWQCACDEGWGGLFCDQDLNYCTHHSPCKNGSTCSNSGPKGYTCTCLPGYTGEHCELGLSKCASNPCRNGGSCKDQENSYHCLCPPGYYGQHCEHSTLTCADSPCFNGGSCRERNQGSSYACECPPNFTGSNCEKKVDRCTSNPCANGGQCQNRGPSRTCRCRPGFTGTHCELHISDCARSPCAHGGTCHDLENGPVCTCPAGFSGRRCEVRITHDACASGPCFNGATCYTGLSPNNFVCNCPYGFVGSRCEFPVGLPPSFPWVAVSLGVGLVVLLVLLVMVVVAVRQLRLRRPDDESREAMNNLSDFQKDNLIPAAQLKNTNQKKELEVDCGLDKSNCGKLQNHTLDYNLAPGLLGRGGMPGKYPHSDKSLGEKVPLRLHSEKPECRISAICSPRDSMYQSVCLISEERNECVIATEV
T5 sequence (Q9JI71 27-686): as above

B1: DLLBII115A05 (VHH)
VHH: EVQLVESGGGLVQPGGSLRLSCAASGFTFGSYDMSWVRRSPGKGPEWVSSINSGGGSTYYADFVKGRFTISRDNAKNTLYLQMNSLKPEDTAVYYCAADRYIRARQGDYWGAYEYDYWGQGTQVTVSS
notes: also called 115A5; DLLBII115A5
Consider B1, for which, in assay [1], the “EC50 (read off the curve)” value was roughly 30 nM. Besides, in assay [2], the “% inh” value was 74%. For the same molecule, the IC50 with recombinant human DLL4 is 5 nM.

B2: DLLBII136C07 (VHH, not shown: small tags and cut ends)
VHH: B1 VHH with F63Y, R103W, D108E
Turning to B2, the IC50 in assay [3] came out at 11.4 nM; in assay [4] it was 50.8 nM.

B3: DLLBII56A09 (VHH)
VHH: EVQLVESGGGLVQPGGSLRLSCAASGFTFDDYAIGWFRQAPGKEPEGISCISSSGGITYYADSVKGRFTTSRDNAKNTVYLQMNSLKPEDTAVYYCATPGIAACRGIHYTGQGTQVTVSS
notes: also called 56A9; DLLBII56A9
For B3, the IC50 in the assay with recombinant human DLL4 worked out at 1.2 nM.

B4: DLLBII101G08 (VHH)
VHH: EVQLVESGGGLVQAGGSLRLSCAASGRTFSSYAMAWFRQAPGKEREFVAAIRWSGGTAYYADSVQGRFTISRDNAKNTVYLQMNSLKPEDTAVYYCANRAADTRLGPYEYDYWGQGTQVTVSS
notes: also called 101G8; DLLBII101G8
Regarding B4, the “EC50 (read off the curve)” value in assay [1] is roughly 40 nM. In addition, the “% inh” value in assay [2] was 91%.

B5: DLLBII129B05 (VHH, not shown: small tags and cut ends)
VHH: B4 VHH with F37Y, F47Y, A101P, G106A, Y112H
On to B5, for which the IC50 in assay [3] turned out to be 8.2 nM; in assay [4], 15.9 nM.

B6: DLLBII129E11 (VHH, not shown: small tags and cut ends)
VHH: B4 VHH with F37Y, F47Y, A101P, G106R, E109L
In the case of B6, in assay [5], the “EC50 (read off the curve)” value was roughly 10 nM.

One may read the EC50 (read off the curve) as the concentration that produces a half-maximal response. A word on the IC50: it is the midpoint of a concentration-inhibition curve.
